Series [1] has as its target PEDV nsp12-A382R (porcine epidemic diarrhea virus (PEDV)). Kind of series: native MS.
The target of a further series is T1, PEDV nsp12 (porcine epidemic diarrhea virus (PEDV), UniProt P0C6Y4).
T1 sequence: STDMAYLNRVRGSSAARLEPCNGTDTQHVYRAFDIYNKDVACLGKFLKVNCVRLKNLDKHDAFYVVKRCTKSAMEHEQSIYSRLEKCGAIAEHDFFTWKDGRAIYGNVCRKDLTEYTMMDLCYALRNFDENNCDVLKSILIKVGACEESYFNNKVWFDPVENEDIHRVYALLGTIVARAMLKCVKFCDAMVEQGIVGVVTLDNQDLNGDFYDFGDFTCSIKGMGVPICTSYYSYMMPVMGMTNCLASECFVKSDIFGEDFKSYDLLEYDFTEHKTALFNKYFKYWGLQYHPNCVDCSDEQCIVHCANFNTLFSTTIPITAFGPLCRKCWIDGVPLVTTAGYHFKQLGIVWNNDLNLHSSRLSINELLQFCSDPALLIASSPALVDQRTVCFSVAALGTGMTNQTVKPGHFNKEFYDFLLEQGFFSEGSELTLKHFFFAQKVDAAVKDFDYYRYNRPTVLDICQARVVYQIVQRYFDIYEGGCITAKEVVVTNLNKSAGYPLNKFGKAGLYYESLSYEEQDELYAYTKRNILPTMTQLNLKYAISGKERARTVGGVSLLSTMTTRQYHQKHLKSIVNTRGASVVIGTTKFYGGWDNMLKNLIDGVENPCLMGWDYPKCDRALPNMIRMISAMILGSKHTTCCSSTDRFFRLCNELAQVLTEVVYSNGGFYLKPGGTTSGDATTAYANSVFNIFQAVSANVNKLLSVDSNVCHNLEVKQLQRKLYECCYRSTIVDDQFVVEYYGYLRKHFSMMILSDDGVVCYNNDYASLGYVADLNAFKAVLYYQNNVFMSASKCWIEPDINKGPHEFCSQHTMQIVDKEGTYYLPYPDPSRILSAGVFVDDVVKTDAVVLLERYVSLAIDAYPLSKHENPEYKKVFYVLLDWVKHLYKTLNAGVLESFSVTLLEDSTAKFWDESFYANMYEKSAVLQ
Kind of series: native MS.

In series [2] the target is PEDV nsp12 (RdRp);PEDV nsp7;PEDV nsp8 (Porcine epidemic diarrhea virus …, UniProt P0C6Y4;P0C6Y4;P0C6Y4 4101-5027;3580-3662;3663-3857, ||). The series is described as follows: native mass spectrometry.

Consider 4 molecules from publication PMC11162792 (Nucleic Acids Research, 2023).

Take PEDV nsp12-A382R (enzyme): the stoichiometry N in series [1] stood at 2.

B1: PEDV nsp8 (natural protein)
chain: SVASTYVGLPSYVIYENARQQYEDAVNNGSPPQLVKQLRHAMNVAKSEFDREASTQRKLDRMAEQAAAQMYKEARAVNRKSKVVSAMHSLLFGMLRRLDMSSVDTILNLAKDGVVPLSVIPAVSATKLNIVTSDIDSYNRIQREGCVHYAGTIWNIIDIKDNDGKVVHVKEVTAQNAESLSWPLVLGCERIVKLQ
Turning to B1, the “stoichiometry N” value with PEDV nsp12 amounted to 2.

B2: Pair 1 primer/template RNA (short) (dsRNA)
RNA 1: CAUUCUCCUAAGAAGCUAUUAAAAUCACA
RNA 2: AAAAAGGGUUGUGAUUUUAAUAGCUUCUUAGGAGAAUG
Turning to B2, the binding result in series [2] was “binds”.

B3: PEDV nsp7 (natural protein)
chain: SKLTDIKCSNVVLLGCLSSMNVSANSTEWAYCVDLHNKINLCNDPEKAQEMLLALLAFFLSKNSAFGLDDLLESYFNDNSMLQ
In the case of B3, in the series with PEDV nsp12, the “stoichiometry N” value is 1.

As usually defined, the stoichiometry N is a count of units in the complex or per binding partner.
